# According to the RNAGym collection of RNA variant scans (doi:10.7554/elife.90254):
# B1: LINE1-mini (parent)
# chain: GGCAGAGCUCAACACAGCGUGGCAAAGUGGCUGUGGCUAGACUGCC
# Variants of: B1
# Experiment: self-cleavage, relative activity (ratio to wild type); higher = more cleavage; in vitro, sequencing; the parent is a self-cleaving ribozyme
row,Variant,self-cleavage
1,C3U G44U,0.23
2,C3U G44C,0.35
3,C3U G19U,0.32
4,C3U G19A,0.83
5,C3U G19C,0.25
6,C3U A4U,0.15
7,C3U A4C,0.26
8,C3U A4G,0.31
9,C3U U28G,0.23
10,C3U U28C,0.24
11,C3U U28A,0.4
12,A4C C8A,0.32
13,A4C C8G,0.07
14,A4C C8U,0.22
15,C3U C10U,0.15
16,C3U C10G,0.03
17,C3U C10A,0.05
18,A4C C45A,0.12
19,A4C C45U,0.2
20,A4C C45G,0.17
21,C3U G5U,0.2
22,C3U G5A,0.21
23,C3U G5C,0.27
24,C3U C18A,0.23

row,Variant,self-cleavage
1,C3U C18U,0.42
2,C3U C18G,0.09
3,A4C C46U,0.18
4,A4C C46A,0.14
5,A4C C46G,0.13
6,C3U C42U,0.14
7,C3U C42G,0.07
8,C3U C42A,0.09
9,C3U G29U,0.34
10,C3U G29C,0.37
11,C3U G29A,0.26
12,A4C C31A,0.14
13,A4C C31G,0.06
14,A4C C31U,0.06
15,A4C A24G,0.14
16,A4C A24U,0.17
17,A4C A24C,0.09
18,A4C A25C,0.06
19,A4C A25G,0.12
20,A4C A25U,0.13
21,A4C C42U,0.2
22,A4C C42A,0.13
23,A4C C42G,0.05
24,C3G A24G,0.5

row,Variant,self-cleavage
1,C3G A24C,0.35
2,C3G A24U,0.72
3,C3G G29C,0.43
4,C3G G29A,0.38
5,C3G G29U,0.55
6,C3G G22C,0.26
7,C3G G22A,0.36
8,C3G G22U,0.38
9,A4C G17C,0.08
10,A4C G17A,0.08
11,A4C G17U,0.08
12,A4C G7U,0.21
13,A4C G7A,0.87
14,A4C G7C,0.17
15,C3U C23G,0.46
16,C3U C23U,0.38
17,C3U C23A,0.55
18,C3G G40A,0.39
19,C3G G40C,0.1
20,C3G G40U,0.13
21,C3U A41G,0.12
22,C3U A41U,0.56
23,C3U A41C,0.09
24,C3G C45A,0.45

row,Variant,self-cleavage
1,C3G C45G,1.97
2,C3G C45U,0.33
3,C3G U38C,0.22
4,C3G U38A,0.18
5,C3G U38G,0.05
6,A4C C37G,0.05
7,A4C C37U,0.16
8,A4C C37A,0.28
9,C3U C45A,0.2
10,C3U C45U,0.32
11,C3U C45G,0.12
12,C3U G30C,0.44
13,C3U G30U,0.5
14,C3U G30A,0.75
15,C3U G27U,0.41
16,C3U G27A,0.36
17,C3U G27C,0.2
18,C3U A16U,0.09
19,C3U A16C,0.09
20,C3U A16G,0.16
21,C3U A14G,0.34
22,C3U A14U,0.19
23,C3U A14C,0.08
24,C3G G17U,0.15

row,Variant,self-cleavage
1,C3G G17C,0.15
2,C3G G17A,0.14
3,C3U G36A,0.34
4,C3U G36C,0.19
5,C3U G36U,0.22
6,A4C C15G,0.04
7,A4C C15A,0.1
8,A4C C15U,0.13
9,A4C G19U,0.06
10,A4C G19A,0.28
11,A4C G19C,0.07
12,C3G G30U,0.71
13,C3G G30A,0.82
14,C3G G30C,0.32
15,C3G C18U,0.54
16,C3G C18G,0.15
17,C3G C18A,0.17
18,C3G C15G,0.04
19,C3G C15U,0.25
20,C3G C15A,0.18
21,A4C G27C,0.07
22,A4C G27A,0.17
23,A4C G27U,0.07
24,C3G U28A,0.22

row,Variant,self-cleavage
1,C3G U28C,0.16
2,C3G U28G,0.19
3,C3U C8U,0.71
4,C3U C8A,0.38
5,C3U C8G,0.15
6,C3G A16U,0.18
7,C3G A16C,0.12
8,C3G A16G,0.23
9,C3G U32G,0.11
10,C3G U32C,0.14
11,C3G U32A,0.05
12,C3U A12G,0.06
13,C3U A12U,0.35
14,C3U A12C,0.06
15,C3G G33C,0.12
16,C3G G33A,0.23
17,C3G G33U,0.2
18,C3U A26G,0.34
19,C3U A26U,0.67
20,C3U A26C,0.35
21,C3U U9A,0.29
22,C3U U9C,0.07
23,C3U U9G,0.15
24,C3U G35U,0.18

row,Variant,self-cleavage
1,C3U G35A,0.22
2,C3U G35C,0.11
3,C3G A26U,0.56
4,C3G A26C,0.37
5,C3G A26G,0.36
6,A4C A12C,0.03
7,A4C A12U,0.17
8,A4C A12G,0.06
9,C3G G27U,0.32
10,C3G G27C,0.13
11,C3G G27A,0.21
12,A4C C23G,0.23
13,A4C C23U,0.16
14,A4C C23A,0.25
15,C3G C46U,0.17
16,C3G C46G,0.35
17,C3G C46A,0.36
18,C3G G35C,0.13
19,C3G G35A,0.23
20,C3G G35U,0.28
21,C3U C13A,0.15
22,C3U C13U,0.23
23,C3U C13G,0.14
